A short description of this data set: label from the status in PepcDB records.
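Also: failed if final PepcDB status was selected cloned or expressed and not failed if soluble or beyond.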

Regarding “MDTKTKRGFWIGINYSKTNLSLITASAILSIAFYLIYYNTKKTVAAVLFLALAIGAAFFFIKPIVDRDNKKNDINSNIPFFITAFSSLVTSDANIIDVLILLSKKEKLGYLRVEIEKILNLVKNWGMGLAEAINFVAKKTPSDLFSDFLTRFSHAIDSGQDLEEFTRSEVFSTMNSFETAYVSALYSFDLYRDIYVSLLLSFAFLITFIMIMPILIPINVFSVLMLSLIMVALGEFMLVYGISIVLPKDPLWHRTGIKTDTDIKMRNLFLISGTFSMMIFIVIDVMKIMFRIPFYFSFALIVTPLAYPSYVGTKMEREVQKKDEMYGSFIRSLSGSASARGNLLIDALKAIVMHDFGILSKDVNKLYRRLLYRINSLKAWKMFSADTGSHLIEIYSETYAESIDLGADALKSGMVISENFEKIVGLRKRKHSSVTSFVGIMYGITAGLAFSLAISYGILKIIDGIFSSFNLSSLGMTGIFLSPPSSSIFLIEIFLLIILFVHSFIGGISLKVSDGGRIINGLHHTVLMIWIVSFVVYGTMYITTILLGSTVS”, the protein production entry is given as “failed”.

Regarding “MDTLAYLHLAETYETSTTDESSPEIPWTKNQSSALMLVASFAMGSLNWCLPTVAALKKGHRNPQVASLQQKLRASGYFPQVATGYFGSVTEAAVKRFQQANGLKADGIVGAATLAALESSIGVSESSITDPQIATSKSSLKQGDISDRVMSLQEKLQADGYYQGAITGNFDAATQAAVIQFQQANRLVVDGIVGPQTSSVLASSTRKLAASLPQKTTLEPFLTQQPQNQVKISPQSAAPPSPSQKMRLIKTISGKISPKSVVYSGNGLFFAQNMMYNHTITVYDRNYELVKVIPDEVDLSKYGHSRFKGKYRGAPVEASFSHNGKYAWISNYQMYGPGFNNPGSDKCHPSQKTDKSFLYRINTETLKIDRVIPVGSVPKFVATSTDENLILVSNWCSWDLSVVDINQNQEIKRIKLGPYPRGIVVDPASETAYVAVMGSYNIAKVNLRDFSVQWLRNIGSSPRHLNIDPAGKYLYASLNGEGKIAKISLPQGNLVKKIATGNAPRSMVLSANGQTLYVVNYGEDTVSKVRTSDMKVLQKVKVEPDPIGITYDPQTREVWVACYSGNIMIFQD”, the protein production entry was “failed”.

For “MDTLDGLKTVVAVVETNSFTAASDRLGISKALVSKYVGEVENQLGIRLFNRTTRQLALTDSGRRYYEEAIILLEQFSAMVDNVTGEQTAPRGLLRISAPVTFGEMRLAPLLPKFIALYPDLTVELVLTNGAIDMLEEGIDVRLRIGGVDDSNMIARHLTNFPLVLSASPNYAQTQGLPTTPEQLGEHHCIIDSNFRIGKQWPFISPKGRAETINVQSGLAVNSPQAVREIAIADGGIAMTPNFIVEDALADGRLLRVMPEYTTLEFGLFAIYPHRKYVARKVRCFIDFVLEQFSKK”, the protein production entry was “failed”.

“MDTMDTLRAFLRVAELGSFTRAAETLGLPKASVSTAVQRLEASLGTQLLHRTTRRVQLTADGTAFYQRSRDLLDDMDELQGMFQRDHSQLRGRLRVDMSAGIARQFVIPALPAFLAQHPQLEIEISGTDRRVDLVREGFDCVLRVGTVEDTSLVGRPLGVLRIINVASAQYLAQRGVPQTLEDLAQHDLVHYVSTLGQRSPGFEYHDGAQYHWLPMRGPVTVNNGDAYLAAARAGLGIIQAPASPLQAHLDSGVLVEVLAQMAPEPMPVTLLYAQRRHLPQRVRLFMDWIAQVMAPHLEPHLP”: the protein production result is given as “failed”.

On to “MDTMRDRFAPVVSRLLDEDPRVVVVLAEIGKDGFTEARRRHPDRVINVGIREQLLVGAGAGLALTGLRPVLHTFASFLVERPFEQVKLDLGHQDVGAVLVSAAASFDWPAGGYTHMSPGDVALLDTLDGWTMHVPGHPDEAETLLRHAVAAGDDKVYVRLSVQSNARRRAVDGERFLTVREGRAGVVVAVGPLLDPVLEATEGLDVTVLYATTVRPFDAVALRRATETAGTDVVLVEPYLAGTSTAAANDALHDVPHRVLGLGVGRPELRRYGSVDEHMAAHGLDAGSLRQRIAEFAGAPARA”, for which the protein production result is on record as “failed”.

On to “MDTNNFTVKVEYVDADGAEIAPSDILTDYHYVSTPKDIPGYKLREIPHNATGNITDTGIIVRYIYLEHHHHHH”, for which the protein production result is “not failed”.

Consider “MDTSLPSAILNNMVTATLILDDGLAIRYANPAAELLFSQSAKRIVEQSLSQLIQHASLDLALLTQPLQSGQSITDSDVTFVVDGRPLMLEVTVSPITWQRQLMLLVEMRKID”, for which the protein production entry is recorded as “not failed”.

Turning to “MDVDVDVDVEMDMDMDMYVALVEVEVEVFLLRTQILTESRKGRMITNMKKPNGNVTNVCDRCGGNGHWFHTCRIPKYLVELYKQSLKQDGKNTETNLVYEKGEDDTTHMELDDFLTHDGNIDS”, the protein production result was “failed”.

As to “MDVEDYITLFLSLWIIASALAVKSVDVFLTLTLIGLLITLEVGGLFLSKEQKENLQPLIEILLLVFAVIVVKKVYEVLSG”, the protein production result is on record as “failed”.

For “MDVLIFNSWHWWTHTSGLQPWDYMREGNQLYKDMNRLVAYYKGLNTWARWINNNIVPSRTQVFFQGVSPVHYDGREWNEPLKSCNGQTQPFMGQRYPGGLPLGWVVVNKVLSRIRKPVHLLDLTTLSEYRKDAHPSLYNGISKDLDCSHWCLPGLPDTWNLLLYSSLTS”, the protein production result is listed as “failed”.

Turning to “MDVLIHLFVGLHIIGIAALLGGFLTQMKAMGRGTARFVPGMLHGALTMLVTGVALVGLNQADDHSVNTIKIGVKLALLIVILGLVYVKRDEEQVDKGLFGLVGLLTTANIFIAVLWT”, the protein production entry is “failed”.

On to “MDVLRKQEILPQLPKLDKYERKSSCGNTWQGSLSETESWREKLRYLTDYRLERGRFDKDTDFLSTFQPKQNEVQRNNISFEFDSDKSSRKTDFPGILTERPVLLRTNQEPDVYGARLRELSAANAEGERNVFHEDKTSSSQSKLPSFEIFSAIGQKEDIPGYQGGCLRGETVLKTAAVASPQIADRNSRVSFHDGGILQPINSPTGFSQPRNDNNSYKTSSSEENLYSIRQLPWSEYARTRNYDCVEPSLGVSISDEQRRFGENALCMSVSQPMYEEPHPLVTLRSTEGLTQEQKQLRR”, for which the protein production entry is given as “failed”.

Take “MDVSGQLNTETVGSSLRKIRSFSHYEKHDEVFHSDQSHIVVVHNGQLRVQTGDCTIDVVAGSGVFLSQGDYLLEYSPQGGNYHSSIIEFDNELVSQLLQKHSDLLMTLPKVDKLNSGLFSFGLNILIEQVLSGMKTLEEQSYPDAIMRLKYEEMLILLLHSQGGEVLYALLSQQTNRTSDRLRRFMEQHYLKEWKLTDYAQEFGASLTTFKELFNEHYGISPRAWISERRLLHAHKLLLTSKMSIVDVAMEAGFSSQSYFTQSYRRRFGTTPSKVRSGDEQVAIAN”: the protein production entry was “failed”.

With “MDVTVSTDDGYRVNNLGLMSSRQNYMIFGGFVAIAGIIIVLVGEKFKPSANSVKCPYCAELISAEAVKCKHCGSDVTPSKTIVSADDAEASDRLADVNVKLIAGVVLAVFAAIIGAIIFHRQ”, the protein production result is “failed”.

With “MDWEERENPKRLVKTFAFPNFREALDFANRVGALAERENHHPRLTVEWGRVTVEWWTHSAGGVTEKDREMARLTDALLQR”, the protein production result is recorded as “not failed”.

Turning to “MDYFGLAAKYIPFVTLGLLPIMNPLSTVPLFLELTKRMSPERKHQQARRACLYALSILAVFLFIGNGIITLFGISLAGIRVAGGLIILVLAFRMLFSGEGEEASIETEATEIKRANLDFSFSPLAMPSLAGPGSIAVVMSYGSQIPDDALVFGHFIVICGISITVLIAYIALAGSAWIAKFLGEHGIQAVTKIMGFLLTCIAVQFIASGIRDFSQTL”, the protein production result was “failed”.

Consider “MDYSQYHVEQTQEITELVTRTFSKSEGVDEGTLIGALIKDLFATTDSDDMFIFVAKDNGKIVGSIFFTRLTFEIDTTAFLLCPVVIDTEYQNKGVGQTLINHGLEVLKQEGVELVFTYGEPKFYERVGFEIVSEEQFKSPIPLSYLYSWLAQSLNDEVLTYIPGRSKCVAALNNLRLW”, for which the protein production result is recorded as “failed”.

Consider “MDYTASYYTDEELAKLFKAAKGDPLELPIVLAAYYGLRRSEIIGLRWDAIDFNPDDPKITIQFTVTEVNFGDGQGNVIIEKEGTKSKASKRTLPLVKPIADLLLQKKKDIENNRRLCGSCYNDKYLDFVHVNEIGERMKPNYISQHFALLLEKHGLKKIRFHDLRHSCASLLYANGVSLKQIQEWLGHSDISTTANIYTHLDYNSKIATANAILPVLFDQLEHHHHHH”, for which the protein production entry was “failed”.

In the case of “MEAEVWEAEGYNLVLDSDLYDADGYDVPDPGLLTEKNELTFTEPSQVLPFLTSSQQWQSLTPRARARRLWLLLRTSLHEVVEKEKRAELRAARLTHGLEPLRRLEVAAGLRSVAQDPVGGRFVVLDGAGRLHLHKEDGWAQETLLAPVRLTGLVTVLGPLGAVGRFVGWGPAGLAILRPNLSLLWLSEQGVGRAPGWAPTCCLPVPDLRLLLVAEMNSSLALWQFRSGGRRLVLRGSALHPPPSPTGRLMRLAVAPVPPHHVLRCFAAYGSAVLTFDLHAWTLVDVRRDLHKTTISDLAYCEEVEAMVTASRDSTVKVWEADWQIRMVFVGHTGPVTAMTVLPNTTLVLSASQDGTLRTWDLQAAAQVGEVALGFWGQDKLSRRVGRLLAPVRPGWPVLSLCASSMQLWRVRELYSPLAQLPAKVLHVQVAPALPAPAHQSLPTRLVCACADGSVYLLSAATGRIVSSLLLEPEDCAAAVAYCLPREALWLLTRAGHLVRANAARCPMSVLHRVCPPPPPAPQPCCLHLYSHLTDLGGAFSSWEIVRQHWGELRCSSVACAWKNKNRYLPVVGHTDGTLSVLEWLSSKTVFQTEAHSPGPVVAIASTWNSIVSSGGDLTVKMWRVFPYAEESLSLLRTFSCCYPAVALCALGRRVTAGFEDPDSATYGLVQFGLGDSPRLDHRPQDDPTDHITGLCCCPTLKLYACSSLDCTVRIWTAENRLLRLLQLNGAPQALAFCSNSGDLVLALGSRLCLVSHRLYLPTSYLVKKMCRKAPDVVDDPPLPLMSQESLTSAQLQRLTNLHGAASLRSHAGLLSPPGGPPFPLWVGAWRCGALWS”, the protein production result is “failed”.

As to “MEAKLQVGVLGFGTVGSGVIHILEEHQEKISQVTGYHISVKKVLVRDLEKNRRYETKGFELTTNPSDVLDDPEIAVVVEVMGSITTAREYILQALKAGKHVVTANKDLIALHGDELVAVAQANNCDLFYEASVAGGIPILRTIVNSLAADKIQKVMGIVNGTTNFMLTKMTTEKKSYEEVLAEAQALGFAESDPTNDVDGIDAARKMVIMTRLAFGMNVNLDNVETSGIRGISPEDIEVAYQLGYKIKLVGTAEETNGTVNVNVGPVLLPKAHPLAGVNYENNAVFVTGAAVGETMFYGPGAGELPTATSVVSDLITVAKNSRLGTNGNAFNSYKHETKHTPKEQVFSKYYLRLTMDDKTGTFLKLTQIFAEAGVGFDKILQQPYDDFTATVVIVTHSTSQAQLEQAITRVKNEPEMQMLAKYSVVEG”, the protein production result is recorded as “not failed”.

Consider “MEALKIALLGGGTVGSAFYNLVLERAEELSAFGVVPRFLGVLVRDPRKPRAIPQELLRAEPFDLLEADLVVEAMGGVEAPLRLVLPALEAGIPLITANKALLAEAWESLRPFAEEGLIYHEASVMAGTPALSFLETLRGSELLELHGILNGTTLYILQEMEKGRTYAEALLEAQRLGYAEADPTLDVEGIDAAHKLTLLARLLVDPGFPFAEVEAQGIARLTPEVLQKAEARGERVRLVASLFGEGGRWRAAVAPRRLPQDHPLARARGNALWVRARPLGEAFVTGPGAGGGATASGLFADLLRFLSGAPGHLPAPRARPPLEEGSPWPGVE”, for which the protein production result was “failed”.

For the sequence “MEALRLGFSPCPNDTFIFYALVHGRVESPVPLEPVLEDVETLNRWALEGRLPLTKLSYAAYAQVRDRYVALRSGGALGRGVGPLVVARGPLQALEGLRVAVPGRHTTAYFLLSLYAQGFVPVEVRYDRILPMVAQGEVEAGLIIHESRFTYPRYGLVQVVDLGAWWEERTGLPLPLGAILARRDLGEGLIRALDEAVRRSVAYALAHPEEALDYMRAHAQELSDEVIWAHVHTYVNAFSLDVGEEGERAVARLFAEAEARGLAAPSPRPLFV”, the protein production result is “not failed”.

For the sequence “MEATKERMEKDQKKRVVTNEAGKAEDNTIRTIIRESIVEDRGSNDDDGNKDNDHGASKPEDILAFSRTVRKIDSSLE”, the protein production entry is given as “failed”.

Source of the values: a protein production outcome set (Wang et al. 2014).
